Data set [1] has as its target T1, Capu-FH1FH2 (Drosophila Capu residues 467-1,058) (Drosophila, UniProt Q24120 467-1058).
T1 sequence: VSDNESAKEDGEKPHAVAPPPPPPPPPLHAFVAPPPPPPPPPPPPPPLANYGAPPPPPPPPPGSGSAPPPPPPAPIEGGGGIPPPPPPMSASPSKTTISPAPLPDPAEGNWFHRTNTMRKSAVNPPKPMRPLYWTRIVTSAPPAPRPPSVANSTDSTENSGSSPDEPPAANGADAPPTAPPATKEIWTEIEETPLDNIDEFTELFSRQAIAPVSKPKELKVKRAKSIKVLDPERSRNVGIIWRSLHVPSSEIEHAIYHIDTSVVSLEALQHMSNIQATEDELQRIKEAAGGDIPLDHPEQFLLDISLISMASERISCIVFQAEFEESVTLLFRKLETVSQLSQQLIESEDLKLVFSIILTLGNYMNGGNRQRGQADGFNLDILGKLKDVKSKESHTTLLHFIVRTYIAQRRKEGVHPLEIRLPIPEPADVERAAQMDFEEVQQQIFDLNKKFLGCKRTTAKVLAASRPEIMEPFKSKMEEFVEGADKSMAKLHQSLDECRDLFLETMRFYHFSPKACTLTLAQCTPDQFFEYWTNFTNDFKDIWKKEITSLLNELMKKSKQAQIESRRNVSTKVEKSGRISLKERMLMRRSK
Description: co-sedimentation.

In data set [2] the target is phalloidin-stabilized actin filaments. Description: co-sedimentation.
For data set [3] the target is unchanged. Description: co-sedimentation. This is another data set of the same source.
Data set [4] addresses T1, Capu-FH1FH2 (Drosophila Capu residues …). Description: other fluorescence titration.
The data set “AUC” concerns the molecule itself. The data set can be described thus: AUC.
The target in data set [5] is T2, Capu-FH2 (Drosophila Capu residues 573-1,058) (Drosophila, UniProt Q24120 573-1058).
T2 sequence: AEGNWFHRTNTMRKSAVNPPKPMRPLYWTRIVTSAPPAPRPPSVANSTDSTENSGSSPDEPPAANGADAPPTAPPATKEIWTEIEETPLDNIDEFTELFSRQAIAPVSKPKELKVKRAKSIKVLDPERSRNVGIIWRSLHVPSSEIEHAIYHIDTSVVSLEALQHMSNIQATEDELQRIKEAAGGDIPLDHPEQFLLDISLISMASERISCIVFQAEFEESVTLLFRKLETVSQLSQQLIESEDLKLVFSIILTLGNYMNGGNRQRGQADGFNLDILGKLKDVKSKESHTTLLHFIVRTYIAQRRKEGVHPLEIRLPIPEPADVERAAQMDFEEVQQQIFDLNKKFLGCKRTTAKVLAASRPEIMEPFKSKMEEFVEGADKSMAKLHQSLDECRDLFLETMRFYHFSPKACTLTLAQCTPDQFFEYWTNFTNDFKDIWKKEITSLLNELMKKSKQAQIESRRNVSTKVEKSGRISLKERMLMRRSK
The data set can be described thus: inhibition of formin-driven pyrene-actin assembly.

Data set [6] concerns the target T1, Capu-FH1FH2 (Drosophila Capu residues …). The data set can be described thus: fluorescence polarisation. In general terms: Polarisation of emitted light reports the rotation of a fluorescent probe.
For data set [7] the target is unchanged. Description: fluorescence polarisation. This is another data set of the same source.
For data set [8], the target named is T2, Capu-FH2 (Drosophila Capu residues …). Description: fluorescence polarisation.
The target in data set [9] is T3, Fmn2-FH2 (formin-2 residues 1,124-1,567) ( (printed as m-Fmn2, …, UniProt Q9JL04 1135-1578)). Description: fluorescence polarisation.
T3 sequence (Q9JL04 1135-1578): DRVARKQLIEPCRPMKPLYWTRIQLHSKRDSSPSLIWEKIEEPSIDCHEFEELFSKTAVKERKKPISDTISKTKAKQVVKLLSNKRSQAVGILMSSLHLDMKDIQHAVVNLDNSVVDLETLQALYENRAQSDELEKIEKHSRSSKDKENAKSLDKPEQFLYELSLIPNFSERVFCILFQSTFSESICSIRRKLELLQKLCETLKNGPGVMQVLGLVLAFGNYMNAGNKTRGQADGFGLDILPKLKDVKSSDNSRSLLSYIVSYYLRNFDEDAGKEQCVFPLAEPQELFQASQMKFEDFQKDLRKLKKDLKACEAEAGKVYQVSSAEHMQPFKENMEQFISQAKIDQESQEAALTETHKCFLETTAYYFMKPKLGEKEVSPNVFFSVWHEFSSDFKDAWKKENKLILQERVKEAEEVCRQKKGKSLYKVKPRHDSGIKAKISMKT
Data set [10] deals with T3, Fmn2-FH2 (formin-2 residues 1,124-1,567). Description: inhibition of formin-driven pyrene-actin assembly.

Like-named read-outs stand apart in the source and are kept apart here.

B1: NTSpir (Drosophila Spir residues 1-520) (domain or fragment)
chain: MTEHQAEEQADTPPTKVKATPTPTPSGKFKDAKEDAFLSTSPDSANGDAQHKLPADQLAMSSSAHPQQAGQARPLILQAFHRCSSPEQCVTLHDILDSFKAPLSEDQAWALIHQFAGLYHQVAVQAHTCAADYEAALPTGFELHFHRDGSVHFSGPDQLTPKEQLQQEQIPLPPQHDVIVDQPDHSASSSGDSSVINRAFDNSNHHHHHQHHHPPLVVSHRKIISELAEIVYTALDYNLPEDEECQVSQELENLFNFMTADETDDDCIDEGIDEGDKRWDDESEEERNDTKELEHIIETCRNHIKTTLPENHYRAVCRALVTETIELRVFLQQVLNNEAGAEKLIKASESSATTQQELAKLGFNDWARFWVQVIDELRRGVRLKKSNHERTPIEYELTPYEILMGDIRAKKYQLRKVMVNGDIPPRVKKDAHAMILEFIRSRPPLKKASDRQLGPPRMCEPSPREQLMESIRKGKELKQITPPEAPTLRERVLPSANSTLSRSRQRLIKVDFSKFQDDDL
For B1, the binding result in data set [1] is “binds”.

B2: Capu-FH1FH2 (Drosophila Capu residues 467-1,058) (domain or fragment)
chain: T1 sequence
One may read the Kd as the free concentration of one partner at which half of the binding sites on the other are occupied at equilibrium, for simple one-to-one binding. Lower therefore signals tighter binding. B2: the figures for the Kd in data set [2] and in data set [3] were 7 nM and 6 nM, respectively.

B3: AlexaFluor488-labeled WH2 cluster, KCK-WH2(C459S) (Drosophila Spir residues 366-482) (domain or fragment)
chain: KCKWARFWVQVIDELRRGVRLKKSNHERTPIEYELTPYEILMGDIRAKKYQLRKVMVNGDIPPRVKKDAHAMILEFIRSRPPLKKASDRQLGPPRMSEPSPREQLMESIRKGKELKQITP
modifications: AlexaFluor488-maleimide on the cysteine of the N-terminal Lys-Cys-Lys (~100% labeled)
Consider B3, for which the Kd in [4] was determined as 2400 ± 900 nM.

B4: AlexaFluor488-labeled Capu-FH1FH2 with C-terminal Lys-Cys-Lys (domain or fragment)
chain: VSDNESAKEDGEKPHAVAPPPPPPPPPLHAFVAPPPPPPPPPPPPPPLANYGAPPPPPPPPPGSGSAPPPPPPAPIEGGGGIPPPPPPMSASPSKTTISPAPLPDPAEGNWFHRTNTMRKSAVNPPKPMRPLYWTRIVTSAPPAPRPPSVANSTDSTENSGSSPDEPPAANGADAPPTAPPATKEIWTEIEETPLDNIDEFTELFSRQAIAPVSKPKELKVKRAKSIKVLDPERSRNVGIIWRSLHVPSSEIEHAIYHIDTSVVSLEALQHMSNIQATEDELQRIKEAAGGDIPLDHPEQFLLDISLISMASERISCIVFQAEFEESVTLLFRKLETVSQLSQQLIESEDLKLVFSIILTLGNYMNGGNRQRGQADGFNLDILGKLKDVKSKESHTTLLHFIVRTYIAQRRKEGVHPLEIRLPIPEPADVERAAQMDFEEVQQQIFDLNKKFLGCKRTTAKVLAASRPEIMEPFKSKMEEFVEGADKSMAKLHQSLDECRDLFLETMRFYHFSPKACTLTLAQCTPDQFFEYWTNFTNDFKDIWKKEITSLLNELMKKSKQAQIESRRNVSTKVEKSGRISLKERMLMRRSKKCK
modifications: AlexaFluor488-maleimide on the cysteine of the C-terminal Lys-Cys-Lys (~100% labeled)
By stoichiometry N is commonly meant a count of units in the complex or per binding partner. In the case of B4, in the data set “AUC”, the “stoichiometry N” value amounted to 2.

B5: KIND (Drosophila Spir residues 1-327), unlabeled (domain or fragment)
chain: MTEHQAEEQADTPPTKVKATPTPTPSGKFKDAKEDAFLSTSPDSANGDAQHKLPADQLAMSSSAHPQQAGQARPLILQAFHRCSSPEQCVTLHDILDSFKAPLSEDQAWALIHQFAGLYHQVAVQAHTCAADYEAALPTGFELHFHRDGSVHFSGPDQLTPKEQLQQEQIPLPPQHDVIVDQPDHSASSSGDSSVINRAFDNSNHHHHHQHHHPPLVVSHRKIISELAEIVYTALDYNLPEDEECQVSQELENLFNFMTADETDDDCIDEGIDEGDKRWDDESEEERNDTKELEHIIETCRNHIKTTLPENHYRAVCRALVTETIEL
In general, Ki refers to the dissociation constant of the complex between target and ligand, obtained from inhibition or displacement. A high value points to lower affinity. In the case of B5, the Ki in data set [5] is 5 ± 1 nM. Moreover, binding in [6] was characterised by a dissociation constant (Kd) of 5 ± 3 nM.

B6: AlexaFluor488-labeled KIND (Drosophila Spir residues 1-327) (domain or fragment)
chain: B5 chain
Consider B6, for which the Kd in data set [7] was determined as 1 ± 2 nM; in data set [8], 9 ± 6 nM.

B7: AlexaFluor488-labeled Spir-1–KIND (human Spir-1 residues 2-271) (domain or fragment)
chain: AQAAGPAGGGEPRTEAVGGEGPREPGAAGGAAGGSRDALSLEEILRLYNQPINEEQAWAVCYQCCGSLRAAARRRQPRHRVRSAAQIRVWRDGAVTLAPAADDAGEPPPVAGKLGYSQCMETEVIESLGIIIYKALDYGLKENEERELSPPLEQLIDHMANTVEADGSNDEGYEAAEEGLGDEDEKRKISAIRSYRDVMKLCAAHLPTESDAPNHYQAVCRALFAETMELHTFLTKIKSAKENLKKIQEMEKSDESSTDLEELKNADWAR
In data set [9], B7 registered a Kd of 300 ± 60 nM.

B8: Spir-1–KIND (human Spir-1 residues 2-271), unlabeled (domain or fragment)
chain: B7 chain
With B8, in data set [10], the Ki was determined as 190 ± 40 nM.

For the origin of these results see paper PMC2064741 (The Journal of Cell Biology, 2007).
